Data published in US8298798B2, “Production of C5-C8 alcohols using evolved enzymes and metabolically engineered microorganisms” (The Regents of the University of California, priority 2008, dated 2012).
Values after ≈ are worked out from the molar mass of the structure shown.

Key:
F381L/V461A KIVD = F381L/V461A KIVD (Lactococcus lactis, UniProt A0A0B8QZ66, form not given/V461A); assay: coupled enzymatic assay of KIVD decarboxylation activity; type: biochemical; conditions: for kcat: substrate of V461A/F381L KIVD, 30° C., pH 6.8
From the text: (§1) Protein Expression and Purification. Both gene fragments encoding wild type and F381L/V461A KIVD were amplified from plasmid pZE_LeuABCDKA6 using primers hiskivd_tevfwd and hiskivd_bamrev. After digestion with BamHI, the gene fragments were inserted into expression plasmid pQE9 (Qiagen) to yield pQE_hiskivd_wt and pQE_hiskivd_FL. The ADH6 gene fragment was amplified from yeast genomic DNA using primers hisadh_tevfwd and hisadh_bamrev, digested with BamHI and inserted into pQE9 to generate pQE_hisadh6. Similarly, genes encoding G462D and G462D/S139G LeuA were amplified from plasmid pZE_LeuABCDKA6 using primers hisleua_tevfwd and hisleua_bamrev. After digestion with BamHI, the PCR products were ligated into pQE9 to create pQE_hisleua_GD and pQE_hisleua_GS. The resulting expression plasmids pQE_hiskivd_wt, pQE_hiskivd_FL, pQE_hisadh6, pQE_hisleua_GD and pQE_hisleua_GS were transformed into E. coli strain BL21(DE3) harboring pREP4 (Qiagen). Cells were inoculated from an overnight pre-culture at 1/100 dilution and grown in 200 ml 2XYT rich medium containing 50 mg/L ampicillin and 25 mg/L kanamycin. At an OD600 of 0.6, recombinant proteins were expressed by induction of the cell cultures with 0.1 mM IPTG, followed by incubation at 30° C. overnight. Cell pellets were lysed by sonication in a buffer containing 250 mM NaCl, 2 mM DTT, 5 mM imidazole, and 50 mM Tris pH 9.0. By applying a stepwise gradient of imidazole (up to 250 mM), enzymes were purified from crude cell lysates through Ni-NTA column chromatography. The fractions of highest purity were pooled and buffer-exchanged using Amicon Ultra centrifugal filters (Millipore). Storage buffer 1 ([…], pH 8.0, 1 mM MgSO4, and 20% glycerol) was used for LeuA and ADH6, and storage buffer 2 ([…], pH 8.0, 1 mM MgSO4, 0.2 mM ThDP, and 20% glycerol) was used for KIVD. The concentrated protein solutions were aliquoted (100 μl) into PCR tubes and flash frozen at −80° C. for long term storage.
(§2) Enzymatic Assay of KIVD. Substrate 2-ketoisovalerate (KIV) was purchased from Sigma-Aldrich, and (S)-2-keto-4-methylhexanoate (KHV) was custom synthesized by AsisChem. Inc. Protein concentration was determined by measuring UV absorbance at 280 nm. The decarboxylation activity of KIVD was measured at 30° C. using a coupled enzymatic assay method. Excess ADH6 was used to reduce aldehyde into alcohol, and concomitantly, cofactor NADPH was oxidized to NADP+. The assay mixture contained 0.2 mM NADPH, 0.1 μM ADH6 and 0.1-20 mM 2-keto acids in assay buffer (50 mM potassium phosphate buffer, pH 6.8, 1 mM MgSO4, 0.5 mM ThDP) with a total volume of 0.2 mL. The reactions were started by adding 2 μl KIVD (final concentration: for KIV, 20 nM wt KIVD, 200 nM F381L/V461A KIVD; for KHV, 50 nM both), and the consumption of NADPH was monitored at 340 nm (extinction coefficient, 6.22 mM^−1 cm^−1). Kinetic parameters (kcat and Km) were determined by fitting initial velocity data to the Michaelis-Menten equation using Origin.

wild type KIVD = wild type KIVD (Lactococcus lactis, UniProt A0A0B8QZ66); assay: as above; type: biochemical; conditions: for kcat: substrate of Wild type KIVD, 30° C., pH 6.8
From the text: as §1, §2

[1] = cited from earlier work
CC(C)C(=O)C(=O)O = assay: measurement of LeuA activity (DTNB); type: biochemical, E. coli; conditions: 30° C., pH 8.0
From the text: as §1
(§3) Measurement of LeuA activity. The assay mixture contained 100 mM KCl, 2 mM MgCl2, 1 mM acetyl-CoA, and 100 mM Tris pH 8.0 with a total volume of 100 μl. 100 nM G462D or G462D/S139G LeuA was reacted with 2-ketoisovalerate in a concentration range from 25 μM to 1 mM for 10 minutes at 30° C. While 4 μM G462D or 1.5 μM G462D/S139G LeuA was reacted with (S)-2-keto-3-methylvalerate in a concentration range from 50 μM to 2 mM for 30 minutes at 30° C. The reactions were stopped by adding 0.3 ml of ethanol. Then 0.2 ml of a fresh 1 mM solution of 5,5′-Dithio-Bis (2 Nitrobenzoic Acid) in 100 mM Tris buffer pH 8.0 was added, and the yellow color product was measured at 412 nm. The values obtained were corrected for unspecific hydrolysis by subtracting the absorbance of controlled samples without addition of 2-keto acids. A molar extinction coefficient of 13,600 M^−1 cm^−1 was used in the final calculations.

CC[C@H](C)C(=O)C(=O)O = assay: measurement of LeuA activity (DTNB); type: biochemical, E. coli; conditions: 30° C., pH 8.0
From the text: as §1, §3

G462D LeuA = biological target: T1, G462D LeuA (Escherichia coli, UniProt P09151, G462D); assay: measurement of LeuA activity (DTNB); type: biochemical, E. coli; conditions: for kcat: substrate of G462D LeuA, 30° C., pH 8.0
T1 construct: His tag (pQE9 vector, Ni-NTA purified) (N); TEV protease site (ENLYFQG, encoded by the forward primer) (N); made in house; host or cells: E. coli BL21(DE3) harboring pREP4
T1 sequence (P09151 whole entry G462D): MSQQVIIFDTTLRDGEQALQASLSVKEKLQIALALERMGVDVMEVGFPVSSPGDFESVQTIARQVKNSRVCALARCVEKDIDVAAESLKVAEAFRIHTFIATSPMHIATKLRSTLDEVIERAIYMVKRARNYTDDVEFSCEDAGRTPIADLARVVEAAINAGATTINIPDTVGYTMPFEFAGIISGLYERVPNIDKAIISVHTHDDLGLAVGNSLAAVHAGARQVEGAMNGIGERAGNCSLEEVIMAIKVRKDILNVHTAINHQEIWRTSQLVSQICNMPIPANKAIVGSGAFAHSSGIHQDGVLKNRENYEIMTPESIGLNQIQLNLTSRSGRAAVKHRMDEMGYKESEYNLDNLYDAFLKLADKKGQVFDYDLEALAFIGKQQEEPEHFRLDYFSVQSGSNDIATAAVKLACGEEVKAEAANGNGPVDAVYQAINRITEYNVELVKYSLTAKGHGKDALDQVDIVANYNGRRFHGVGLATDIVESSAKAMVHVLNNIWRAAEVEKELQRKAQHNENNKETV
From the text: as §1, §3

G462D/S139G LeuA = biological target: T2, G462D/S139G LeuA (Escherichia coli, UniProt P09151, G462D/S139G); assay: measurement of LeuA activity (DTNB); type: biochemical, E. coli
T2 construct: His tag (pQE9 vector, Ni-NTA purified) (N); TEV protease site (ENLYFQG, encoded by the forward primer) (N); made in house; host or cells: E. coli BL21(DE3) harboring pREP4
T2 sequence (P09151 whole entry S139G/G462D): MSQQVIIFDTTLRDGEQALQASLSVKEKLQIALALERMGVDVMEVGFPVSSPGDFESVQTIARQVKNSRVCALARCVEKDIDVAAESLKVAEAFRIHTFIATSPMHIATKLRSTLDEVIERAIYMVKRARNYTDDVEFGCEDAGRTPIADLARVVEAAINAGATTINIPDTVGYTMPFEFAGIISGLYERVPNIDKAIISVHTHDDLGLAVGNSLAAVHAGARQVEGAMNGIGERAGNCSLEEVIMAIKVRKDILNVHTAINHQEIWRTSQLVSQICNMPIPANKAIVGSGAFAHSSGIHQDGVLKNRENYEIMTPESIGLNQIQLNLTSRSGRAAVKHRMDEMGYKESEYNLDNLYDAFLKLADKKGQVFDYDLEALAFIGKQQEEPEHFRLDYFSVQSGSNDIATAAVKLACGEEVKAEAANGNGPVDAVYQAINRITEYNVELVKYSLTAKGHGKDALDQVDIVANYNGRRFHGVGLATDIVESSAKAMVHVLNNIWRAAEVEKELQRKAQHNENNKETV
From the text: as §1, §3

[2] = substrate: CC[C@H](C)CC(=O)C(=O)O; assay: coupled enzymatic assay of KIVD decarboxylation activity; type: biochemical, Lactococcus lactis; conditions: other: substrate of Wild type KIVD, 30° C., pH 6.8
From the text: as §1, §2

[3] = substrate: CC(C)C(=O)C(=O)O; assay: as above; type: biochemical, Lactococcus lactis; conditions: other: substrate of Wild type KIVD, 30° C., pH 6.8
From the text: as §1, §2

[4] = other: substrate of G462D/S139G LeuA

Molecule: CC[C@H](C)CC(=O)C(=O)O [(S)-2-keto-4-methylhexanoate]
- specificity constant kcat/Km relative to that towards 2-ketoisovalerate (F381L/V461A KIVD; F381L/V461A KIVD): 40 fold
- kcat (F381L/V461A KIVD): 3.0 ± 0.1 s⁻¹
- kcat (F381L/V461A KIVD; listed as 2-keto-4-methylhexanoate): 3.0 s⁻¹
- kcat (wild type KIVD): 10.8 s⁻¹
- specificity constant kcat/Km relative to that towards 2-ketoisovalerate (wild type KIVD; wild type KIVD): 4 fold

Molecule: CCCCCO [1-Pentanol]
- water solubility [1]: 23 mg/mL (≈ 261 mM)

Molecule: G462D LeuA (Escherichia coli K-12; G462D)
- Km (CC(C)C(=O)C(=O)O; other: substrate of G462D LeuA): 182 µM
- kcat (CC(C)C(=O)C(=O)O; other: substrate of G462D LeuA): 6.0 ± 0.3 s⁻¹
- kcat/Km (CC(C)C(=O)C(=O)O; other: substrate of G462D LeuA): 33000 M⁻¹ s⁻¹
- Km (CC[C@H](C)C(=O)C(=O)O; other: substrate of G462D LeuA): 55 µM
- kcat (CC[C@H](C)C(=O)C(=O)O; other: substrate of G462D LeuA): 0.018 ± 0.001 s⁻¹
- kcat/Km (CC[C@H](C)C(=O)C(=O)O; other: substrate of G462D LeuA): 330 M⁻¹ s⁻¹

Molecule: CC[C@H](C)C(=O)C(=O)O [(S)-2-keto-3-methylvalerate]
- kcat, fold less than that for 2-ketoisovalerate (G462D LeuA; G462D LeuA): 333 fold
- kcat (G462D LeuA): 0.018 s⁻¹
- increase of kcat by the S139G mutation (G462D/S139G LeuA; G462D/S139G versus G462D LeuA): 7 fold
- kcat (G462D/S139G LeuA; substrate of G462D/S139G LeuA, 30° C., pH 8.0): 0.12 s⁻¹

Molecule: CC(C)C(=O)C(=O)O [2-Ketoisovalerate]
- kcat (F381L/V461A KIVD): 2.7 ± 0.6 s⁻¹
- kcat (F381L/V461A KIVD; listed as 2-ketoisovalerate): 2.7 s⁻¹
- kcat (wild type KIVD): 38.3 s⁻¹
- kcat (G462D LeuA): 6.0 s⁻¹

Molecule: G462D/S139G LeuA (Escherichia coli K-12; G462D/S139G)
- Km (CC(C)C(=O)C(=O)O; [4]): 104 ± 5 µM
- kcat (CC(C)C(=O)C(=O)O; [4]): 2.1 ± 0.1 s⁻¹
- kcat/Km (CC(C)C(=O)C(=O)O; [4]): 20000 M⁻¹ s⁻¹
- Km (CC[C@H](C)C(=O)C(=O)O; [4]): 144 ± 13 µM
- kcat (CC[C@H](C)C(=O)C(=O)O; [4]): 0.12 ± 0.02 s⁻¹
- kcat/Km (CC[C@H](C)C(=O)C(=O)O; [4]): 830 M⁻¹ s⁻¹

Molecule: CCCCCCCO [1-heptanol]
- water solubility [1]: 1.2 mg/mL (≈ 10.3 mM)

B1: wild type KIVD (Lactococcus lactis subsp. lactis) (protein)
chain: MYTVGDYLLDRLHELGIEEIFGVPGDYNLQFLDQIISRKDMKWVGNANELNASYMADGYARTKKAAAFLTTFGVGELSAVNGLAGSYAENLPVVEIVGSPTSKVQNEGKFVHHTLADGDFKHFMKMHEPVTAARTLLTAENATVEIDRVLSALLKERKPVYINLPVDVAAAKAEKPSLPLKKENSTSNTSDQEILNKIQESLKNAKKPIVITGHEIISFGLEKTVSQFISKTKLPITTLNFGKSSVDEALPSFLGIYNGKLSEPNLKEFVESADFILMLGVKLTDSSTGAFTHHLNENKMISLNIDEGKIFNESIQNFDFESLISSLLDLSEIEYKGKYIDKKQEDFVPSNALLSQDRLWQAVENLTQSNETIVAEQGTSFFGASSIFLKPKSHFIGQPLWGSIGYTFPAALGSQIADKESRHLLFIGDGSLQLTVQELGLAIREKINPICFIINNDGYTVEREIHGPNQSYNDIPMWNYSKLPESFGATEERVVSKIVRTENEFVSVMKEAQADPNRMYWIELILAKEDAPKVLKKMGKLFAEQNKS
- Km [2]: 140 µM
- kcat [2]: 10.8 ± 0.3 s⁻¹
- kcat/Km [2]: 77000 M⁻¹ s⁻¹
- Km [3]: 2200 µM
- kcat [3]: 38.3 ± 9.8 s⁻¹
- kcat/Km [3]: 17000 M⁻¹ s⁻¹
